The record followed here is patent US20140348862.

The target in one experiment is HLA-B*3501 (human), P01889. Kind of experiment: competition, FACS 4C. The conditions noted are these: modification not given.
Regarding EPILCPCFM [PRAME 499-507], the half-maximal inhibitory concentration (IC50) – broadly, the concentration that inhibits the measured activity by half – was < 1 µM.

A further experiment has as its target HLA-B*3501 (human), P01889. Nature of the experiment: competition, FACS 4C. The conditions noted are these: modification not given. The source holds these as a separate data set.
Take LPTLAKFSPY [PRAME 246-255]: the IC50 was 0.11 µM.

For a further experiment, the target named is HLA-B7 (human), P01889. Nature of the experiment: competition, FACS 4C. The conditions noted are these: modification not given.
Consider RPRRWKLQVL [PRAME 113-122], for which the IC50 was < 1 µM.

A further experiment addresses HLA-B*3501 (human), P01889. Kind of experiment: competition, FACS 4C. To be noted: modification not given. This is another data set of the same source.
Molecule LPRELFPPLF [PRAME 48-57] returned an IC50 of 1.58 µM.
Still for that read-out and setting: then GACDELFSY [PRAME 186-194], with 2.6 µM; and SPYLGQMINL [PRAME 253-262], with 1.98 µM.
Same read-out and setting: with QPFIPVEVL [PRAME 170-178] the figure was 2.83 µM; with LPRELFPPL [PRAME 48-56], < 1 µM.
Regarding IPVEVLVDL [PRAME 173-181], the IC50 came out at 2.24 µM.
Take LPTLAKFSPY [PRAME 246-255]: the IC50 is < 1 µM.
The same measure, in the same setting: with FPPLFMAAF [PRAME 53-61] the figure was < 1 µM; with EPILCPCFM [PRAME 499-507], 0.32 µM.
